In patent US11479580B2, “Polypeptide expressed in the stratum corneum and use thereof” (CENTRE NATIONAL DE LA RECHERCHE SCIENTIFIQUE—CNRS, priority 2010, dated 2022):

T1: transglutaminase 2 (UniProt P08587)
T1 construct: transglutaminase purified from guinea pig liver; purchased Sigma T5398; host or cells: guinea pig liver
T1 sequence (P08587 1-690): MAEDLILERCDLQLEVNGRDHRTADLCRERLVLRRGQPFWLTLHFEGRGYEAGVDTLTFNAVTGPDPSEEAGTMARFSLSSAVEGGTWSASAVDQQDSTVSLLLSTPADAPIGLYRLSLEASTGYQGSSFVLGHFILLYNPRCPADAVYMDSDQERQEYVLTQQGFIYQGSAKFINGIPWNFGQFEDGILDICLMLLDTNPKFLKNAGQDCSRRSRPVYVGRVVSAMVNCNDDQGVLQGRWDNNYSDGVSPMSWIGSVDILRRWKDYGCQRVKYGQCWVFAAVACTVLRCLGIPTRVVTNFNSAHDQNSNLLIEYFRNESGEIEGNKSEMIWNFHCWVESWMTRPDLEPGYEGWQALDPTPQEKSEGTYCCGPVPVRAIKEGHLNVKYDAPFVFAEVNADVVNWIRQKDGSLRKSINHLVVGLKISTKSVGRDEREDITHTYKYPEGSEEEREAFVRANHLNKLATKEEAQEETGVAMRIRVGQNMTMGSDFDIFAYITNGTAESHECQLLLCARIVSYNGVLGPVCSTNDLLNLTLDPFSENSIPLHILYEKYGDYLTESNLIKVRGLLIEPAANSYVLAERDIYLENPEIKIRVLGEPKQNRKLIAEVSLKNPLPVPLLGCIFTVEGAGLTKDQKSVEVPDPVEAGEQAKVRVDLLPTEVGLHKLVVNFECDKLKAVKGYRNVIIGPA

T2: transglutaminase 3 (Homo sapiens, UniProt Q08188)
T2 construct: purchased R&D Systems
T2 sequence (Q08188 1-693): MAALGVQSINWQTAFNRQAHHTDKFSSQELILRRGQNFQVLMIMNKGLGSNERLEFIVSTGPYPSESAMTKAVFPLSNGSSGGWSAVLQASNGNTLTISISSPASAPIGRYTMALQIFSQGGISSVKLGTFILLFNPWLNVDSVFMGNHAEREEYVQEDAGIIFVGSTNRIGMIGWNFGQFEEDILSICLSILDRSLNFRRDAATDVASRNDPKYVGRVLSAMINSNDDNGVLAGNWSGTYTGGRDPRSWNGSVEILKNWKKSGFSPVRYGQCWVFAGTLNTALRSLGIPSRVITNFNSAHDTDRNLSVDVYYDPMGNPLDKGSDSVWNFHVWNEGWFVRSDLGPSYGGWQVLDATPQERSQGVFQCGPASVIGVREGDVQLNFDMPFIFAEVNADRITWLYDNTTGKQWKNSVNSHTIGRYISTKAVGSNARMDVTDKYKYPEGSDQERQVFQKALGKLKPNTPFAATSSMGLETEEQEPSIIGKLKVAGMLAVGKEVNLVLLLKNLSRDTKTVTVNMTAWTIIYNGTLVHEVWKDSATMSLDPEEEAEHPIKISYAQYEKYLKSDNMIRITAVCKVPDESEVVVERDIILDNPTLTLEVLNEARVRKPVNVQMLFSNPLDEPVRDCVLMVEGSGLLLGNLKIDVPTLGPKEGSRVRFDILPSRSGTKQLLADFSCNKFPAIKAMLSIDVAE

B1: LCE6A-His: recombinant LCE6A possessing a C-terminal histidine tag (protein, UniProt A0A183 1-80, looked up)
Late cornified envelope …: MSQQKQQSWKPPNVPKCSPPQRSNPCLAPYSTPCGAPHSEGCHSSSQRPEVQKPRRARQKLRCLSRGTTYHCKEEECEGD
modifications: His tag
B2: LCE6A: polypeptide of 80 amino acids of the Late Cornified Envelope family, expressed in the epidermis (protein, listed as Homo sapiens)
chain: B1 Late cornified envelope …

Legend:
[1] = biological target: T1, transglutaminase 2; assay: In-vitro transglutaminase 2 binding assay (TGM2); format: biochemical, guinea pig
Protocol: A binding assay of LCE6A by transglutaminase 2 (transglutaminase purified from guinea pig liver, Sigma T5398) was performed in vitro.
(§1) In a first experiment, the applicant tested the capacity of TGM2 to form bridges between LCE-His and a molecule bearing an amine bond, monodansyl cadaverine (MDC). For this, TGM2 (10 ng/μL) was incubated in the presence of 0.35 μg of LCE6A-His in solution in a buffer 50 mM Tris, 100 mM DTT, pH 7.4, with addition of 10 mM CaCl2 and 500 μM MDC (Fluka). After incubation for 2 h or 18 h at 37° C., the reaction is stopped by adding EDTA to final 25 mM. The negative control corresponds to the same experiment performed in the absence of CaCl2 and in the presence of 100 mM of ETDA after incubation for 18 h. The reaction product is separated by SDS-PAGE 15%, then visualized by illumination with UV.
In a second experiment, the applicant also tested the capacity of TGM2 to form bridges of LCE6A with itself. For this, TGM2 (10 ng/μL) was incubated in the presence of 0.35 μg of LCE6A-His in a buffer 50 mM Tris, 100 mM DTT, pH 7.4, with addition of 10 mM CaCl2. After incubation for 2 h or 18 h at 37° C., the reaction is stopped by adding EDTA to final 25 mM. The negative control corresponds to the same experiment performed in the absence of CaCl2 and in the presence of 100 mM of ETDA after incubation for 18 h. The reaction product is separated by SDS-PAGE 15% and transferred onto a nitrocellulose membrane. The intermolecular bonds are visualized by Western Blot as described above with an anti-His antibody (mouse monoclonal IgG1 “Tetra-His antibody”, Qiagen).

[2] = biological target: T2, transglutaminase 3; assay: In-vitro transglutaminase 3 binding assay (TGM3); format: biochemical
Protocol: A binding assay of LCE6A by transglutaminase 3 (human recombinant transglutaminase 3, R&D Systems) was performed in vitro. These assays are carried out according to the same experimental protocol as that described in example 4 paragraph 2 with transglutaminase 2.
as §1, with “TGM3” for “TGM2”, “and” for “and a molecule bearing an amine bond,”
In a second experiment, the applicant tested the capacity of TGM3 to form bridges of LCE6A with itself. For this, TGM3 (10 ng/μL) was incubated in the presence of 0.35 μg of LCE6A-His in a buffer 50 mM Tris, 100 mM DTT, pH 7.4, with addition of 10 mM CaCl2. After incubation for 2 h or 18 h at 37° C., the reaction is stopped by adding EDTA to final 25 mM. The negative control corresponds to the same experiment performed in the absence of CaCl2 and in the presence of 100 mM of ETDA after incubation for 18 h. The reaction product is separated by SDS-PAGE 15% and transferred onto a nitrocellulose membrane. The intermolecular bonds are visualized by Western Blot as described above with an anti-His antibody (mouse monoclonal IgG1 “Tetra-His antibody”, Qiagen).

[3] = 100 mM EDTA, absence of calcium, 18 h
[4] = absence of calcium, 100 mM EDTA

Molecule | capacity of TGM2 to form bridges between LCE-His and MDC, fluorescent bands, negative control [1, 3] | capacity of TGM2 to form bridges between LCE-His and monodansyl cadaverine (MDC), fluorescent bands after SDS-PAGE under UV ([1]; TGM2 10 ng/μL, 10 mM CaCl2, 500 μM MDC, starting from 2 h of incubation at 37° C.) | capacity of TGM2 to form bridges of LCE6A with itself, Western Blot with anti-His antibody ([1]; TGM2 10 ng/μL, 10 mM CaCl2, 2 h or 18 h at 37° C.) | capacity of TGM2 to form bridges of LCE6A with itself, Western Blot, negative control [1, 4] | capacity of TGM3 to form bridges between LCE-His and MDC, fluorescent bands, negative control [2, 3] | capacity of TGM3 to form bridges between LCE-His and monodansyl cadaverine (MDC), fluorescent bands after SDS-PAGE under UV ([2]; TGM3 10 ng/μL, 10 mM CaCl2, 500 μM MDC, starting from 2 h of incubation at 37° C.) | capacity of TGM3 to form bridges of LCE6A with itself, Western Blot with anti-His antibody ([2]; TGM3 10 ng/μL, 10 mM CaCl2, 2 h or 18 h at 37° C.) | capacity of TGM3 to form bridges of LCE6A with itself, Western Blot, negative control [2, 4] | substrate of transglutaminase 2 (conclusion) [1] | substrate of transglutaminase 3 (conclusion) [2]
B1 | No fluorescent band, apart from that corresponding to the free MDC, is detected | several fluorescent bands were detected | several bands of higher molecular weight migrating to a size equivalent to dimers or multimers of LCE6A-His | Only the band corresponding to monomeric LCE6A-His is detected | No fluorescent band, apart from that corresponding to the free MDC, is detected | several fluorescent bands were detected | several bands of higher molecular weight migrating to a size equivalent to dimers or multimers of LCE6A-His | Only the band corresponding to monomeric LCE6A-His is detected |  | 
B2 |  |  |  |  |  |  |  |  | substrate of transglutaminase 2 | substrate of transglutaminase 3
